From the DeepSol protein solubility set

Experiment: soluble on expression in E. coli; label from the status in PepcDB or PDB records

| Sequence | soluble on expression in E. coli |
| --- | --- |
| MLSRMRRKHFLSQTEHTFSRQEVSLWKEKQMICFMMNPSRKHIWASREEINMDHVVITIARQYGSGGRTVGKMLAERLGISFYDKQIIHMASDESGIDVNLFGKIEAGDKIKSSLFGNKSSIYKGDLVLPGNKDFISDENLFNYQAKVVNDLAEKESYVIVGRCVNYVFKDRPNTLRVFIHAPWEFRVEQASQKISGSREDVEKFLLKDDKRKQDYYRKFAGGQWSDATNYDLCLNSGKLGFDKCVDAIETQLKIMLGK | not soluble |
| MLSSHLSQICFSCRDPLGNLPADLIRKCTDLMDLNFAEGQRLRTLNKNWKLALPSFRKGAYREERPWLLYRERGSGETRFFDPVRERVHRGNDPRLADARFLGSTLGWLVMSESLDLNPRKTHQTFLYNPFISELQQLPELTLDSPYPTGVLRYGVLTGNPSDNNTYACLITDYLHEIGNRRDTYTLLIYYVAKTSGRWEQNWSVASMLVVGIFDTWYIESISPSPDKISIEIWPKRYDFTFQTQEWNVSNFIPVDPIQWDPFHDQSLYHVKHRLQLPENPSTLAIIIGTSTDRTRVRNKIIGDQSDDDDPRASDHIIDGVWVEVRP | soluble |
| MLSSTCTAAVRGLSTTAQLSKINNVTIIGAGLMGSGIAQVSANAKLNVTVVDSNQSALEKAQQGIANSLKRVAKKKHADDAAAQTALVSSVLDRIKMSTNVSDSVKDADLVIEAIVENIDIKRKLFAEVEVAAKPTTLITTNTSSLRLADIGLNLKDKSRFGGLHFFNPVPMMKLLEVVRHTETSDATFNQLVDYGKTVGKTTVACKDTPGFIVNRLLVPYMFEALRLYERGDASMEDIDVAMKLGAGYPMGPFELSDYVGLDTCKFIMDGWHAQYPEEVAFTPSPLLNSLVDSGKNGRKSGEGFYKYK | not soluble |
| MLTDTAAEGLSDSEVGREEPATAEEEQREQQPEKFEEPVFSAELDEEQTAPESQTEAVSEDEKAKEPSDSPVYNHHENAAEGAESPFVQEEQMDIRQEEPLFTDHEYSSEALAQAETVAKESEEPSESIINNHYDTLGEAQETKIDVQPDSHTELEKTEHMEQGSKSSTATLENRQEIRADKPREASEEPKKRPGVQEKRTEQSASSQKGPSVPFNVMMLKRDTHKQQKAEERRGSYVFPNVALLDVPPAQVQDDTAWIEEQRQLLDLTLKNFNVRANVVHVTQGPSVTRFEVHPEPGVKVNKITNLSDDIKLSLSAKDIRIEAPIPGKNTIGIEVPNRTSKVVDLRQMIRSSAFRTSKSPLTAALGLDISGNPVVIDLKKMPHGLIAGATGSGKSVCINTILVSLLYKADPSEVKVLLIDPKMVELAPYNKIPHLVSPVITDAKAATAALKWVVEEMERRYELFAHSGVRDIDRFNQLTAEHQMGEKLPYLVVIIDELADLMMVAPNDVEESIARIAQKARACGIHLLVATQRPSVDVITGLIKANIPTRIAFSVSSQVDSRTIIDIAGAEKLLGKGDMLFLENGSGKPVRLQGNFVSDREIDRVVSHVRSQMPPTYLFEQEELVRQGSALKEEDELFYEACEFVVEQNSASTSSLQRRFRIGYNRAARLIDMMEAEGMISEAKGSKPREVLITASDLINE | not soluble |
| MLTGLLDVPYRKSFALLEELLERREAEEQTLAISTLATQLKMQQNTILQSVALLQTEIEKNGWENLFSLSANAKEITFWFAPYFQLSFLMPYFVKKSFAYQVLTYAFNHNAIDSKHFEKVLEISSSTFTRKIGQLNQWLQKYQIEINLKRTNVLVGKEKDIRIFFMMLFWNNYSEGDWPLHTITKKEVHSLFRRLKHSVSFNTTQDFTKDLIFSAVILARWKEGFFIKETFVEEEAIVNPFVNLSEFELFFKEEALHQVPTKFIQKEGLFAFFLLTISVSYATQDVLEIPAARMHMVQLLGSPIKEIIYQLTSFYQIKLTFHEYLYLYTSIQNLSVFFKTFVTIANPFVQESFLKEALQKIQVSTKM | not soluble |
| MLTLLGKIAHFREPLSRQLSLSDTNVTPQISRCAKLNLSVKQKKLLRQSFNAMNSGGTFLKLMEKIFRRLETKCPDMRSIFLTTAFVNSLSRERQTPPLVKTEYDHCKCMVGIFERLIENLENINEQLTMIRHYGEKHAQMAESGFTGAMIEQFGEISVFVIGSQDVVKFNHETVKAWRLLLACVTDEMKVGFDRMSRINGRRNSCNPPSTVPSGN | not soluble |
| MLTRLNRSFVQAARSMYIQVQETPNPLSLKFLPGQQLLPDASKTYDFSSAATAKQSPLAIKLLRVDGVKRVFFGEDFVTVTKSDETVDWALLRPEIFSTIADHIQTGKPVINEAATVSDQVEEDDEVVMMIKEILETRIRPMVQEDGGDITYVGFDDGVVKLKMQGSCTGCPSSGVTLKNGIENMLTFYVPEVKEVIEVKDESDDLVEQELKKFEQSKGIKD | not soluble |
| MLTVGILGGGQLGWMTILEGRKLGFKFHVLEDKENAPACRVADRCFRTGQISEFVDSCDIITYEFEHIKDEVLEKCESKLIPNPQALYVKKSRIREKLFLKKHGFPVPEFLVIKRDEIIDALKSFKLPVVIKAEKLGYDGKGQYRIKKLEDANQVVKNHDKEESFIIEEFVKFEAEISCIGVRDREGKTYFYPQPFNKHEEGILIYNYVPYAKLKEAEEITKRLMELLDIVGVFTVEFFLLKDGRVLINEFAPRVHNTGHWTLDGAYTSQFENLLRAITEMPLGSTELKLPSGMVNILGKSYEEIPLKEILSVEGAKLYWYGKEKKPRRKVGHVNVVGRSKEEVVEKVERVFTLLKGSREKLPAP | soluble |
| MLTYIILVLHLQNHVWEDVTVHNSSLPPLAIKHPECLGLLHQLERSTDVWIQHYCILKDGCLYFYASIRSTQASGGLYLQGYSVSEQTHGFEQPVIELKPSSEEFKTFYFCAENKTENQRWIAALKTSIKKWLPLDQAIQEFMSRPLEETRM | not soluble |
| MLVKSMNFDPLKEAEKIKDEIISWRRDFHMHPELGFEEERTSKIVEEHLREWGYKIKRAGTGIIADIGDGGKTIALRADMDALPIQEENDVPYKSRVPGKMHACGHDAHTAMLLGAAKIIAEHSSELENKVRLIFQPAEEGGNGALKMIEAGALEGVDAIFGIHVWAELPSGIVGIREGPFLAGVGKFIAKIIGKGGHGAAPHFSIDPIPAAADAVLALQRIVAREVDPLESAVVTVGKIQGGTAFNVIPQYVELEGTFRFFTQELGKFLERRIREIIENTAKAHNCKAEVNTEILGPPTINDEKMVKFVAETAKALGLKVGEVRKTLGGEDFAYYLEKVPGAFIALGIRNEEKGIIYPHHHPKFDVDEDVLYLGTALEVALAFNFKG | soluble |
| MLVRLGYVAMSVHLKNASPSQTMTYAQFQKLDDRDAAIRKLERIANSNLENCLRLLKHNKGHDISFFRLSSKLIPLANHEELLEWNYIRPLKENLKKLGEYAVHMNMRIDFHPDHFVVLNSPEESVFKQSVKTLQMHKKLLKGMGIEHKQRCVLHVGGGYKDKELALERFIENWSNVPRGIQEMIILENDDTTFTLEETLYLGEKLDIPVVFDLHHHMMNNEQEDWYEDWARVVHTWETSLLPIKMHISSPREGKDPRAHADYINVDAFLSFLRRIKGSVPQIDCMIEAKMKDESLFQLMRDLSEQVDVEIIDGASFYIK | not soluble |
| MLVSKSNGFNASAVLGSGSYNENKSSKHMELLAHSILKLICKEAASETYRGALETLQKMMSECIYQEGNAFVIMGAGEQLKRIKYEVGENNLKVFNVHFNNNHELVSSGEPDVICLSKQVWENLLIKLKLENNENVFSETKKLSNKNNADQFFECAKRNE | not soluble |
| MLWKEYEEASSLTARVVKHLDKFDMIVQADKYEKTHEIDLQQFFTSTVGVLKMEPFATWDRELRENRMKRINKAE | not soluble |
| MLWLALGPFPAMENQVLVIRIKIPNSGAVDWTVHSGPQLLFRDVLDVIGQVLPEATTTAFEYEDEDGDRITVRSDEEMKAMLSYYYSTVMEQQVNGQLIEPLQIFPRACKPPGERNIHGLKVNTRAGPSQHSSPAVSDSLPSNSLKKSSAELKKILANGQMNEQDIRYRDTLGHGNGGTVYKAYHVPSGKILAVKVILLDITLELQKQIMSELEILYKCDSSYIIGFYGAFFVENRISICTEFMDGGSLDVYRKMPEHVLGRIAVAVVKGLTYLWSLKILHRDVKPSNMLVNTRGQVKLCDFGVSTQLVNSIAKTYVGTNAYMAPERISGEQYGIHSDVWSLGISFMELALGRFPYPQIQKNQGSLMPLQLLQCIVDEDSPVLPVGEFSEPFVHFITQCMRKQPKERPAPEELMGHPFIVQFNDGNAAVVSMWVCRALEERRSQQGPP | soluble |
| MLYDVVGVRFKKAGKVYYFDPNQFDISENEFVIVETVRGIEYGKVVITKKQVDENDVVLPLKKVIRIANENDRTIVEENKHAAKEAYQVCQQKVVEHNLDMKLVDVEYTFDRNKIIFYFTADGRIDFRELVKDLAAIFRTRIELRQIGVRDEAKMLGGIGPCGRMLCCSTFLGDFEPVSIKMAKDQNLSLNPAKISGLCGRLMCCLKYENDEYEAAKEQLPDLDQRIQTPHGTGRVIGLNILERLIQVELVDKERIVEYTLDELVNKGLEHHHHHH | soluble |
| MLYEKFEYNINNLIGNFGLSKIAIAVSGGSDSISLLYLANIWARKNNIELFVISVDHNLRPQSKQENYYIHTISSNLNRKYYNLSFDHQNNFSNLQERAREGRYDLMTNLCLELDVLVLLTAHHEDDYVENFCLRLERNSGIFGLSSSNIHWYNNIQIIRPLYNIPKSELVEYLVNHKIKWFEDESNLSDKYRRNIIRQKLFKEENYIKAEISLQQLKTNKLIEDELKPALISAIAEAVKIFEYGFTFLDLVKFDKFLNEVKAQIINFLLIMISGQSRSARFYSIAHILKLISQDINFKNTVHGCVIKRIQNELLIYREFGKKLPKSKILLDKSVIWDNRFCITKNQKTPDCVITYLSLADYKAIKKQLDLKHLKNLSCKNHNAILFTLPIIKILEKVIAIPHISYYDNDVWNFEVSFAPNFVSRFTHFC | not soluble |
| MLYLHDVWVNWFEGEENGYNVCHFYEWRKDDTIELLDQVPLLKVDATLYHYIENELLELPQKMLKTYIIRLIFVKIMNVCSKSIALLLQNGKGIIAIDTIGYNVPIRKSRLIPRQEQMVYEMVENVQAEKYEFQVEETEKEHHILSPSPFIMNGLTRKERQLKQLLFMALDQLHTTKNTAEIRYWFTEWDPSAYGMVQHMEFEDIWAKLYDEAKTGWSDKHEQLCERLVKGQPFFEKLWEMENEQKVN | not soluble |
| MLYVILRGRLGNNLFQIATAASLTQNFIFCTVNKDQERQVLLYKDSFFKNIKVMKGVPDGIPYYKEPFHEFSRIPYEEGKDLIIDGYFQSEKYFKRSVVLDLYRITDELRKKIWNICGNILEKGETVSIHVRRGDYLKLPHALPFCGKSYYKNAIQYIGEDKIFIICSDDIDWCKKNFIGKRYYFIENTTPLLDLYIQSLCTHNIISNSSFSWWGAWLNENSNKIVIAPQMWFGISVKLGVSDLLPVSWVRLPNNYTLGRYCFALYKVVEDYLLNILRLIWKRKKNMLEHHHHHH | not soluble |
| MMCSTVISQLGFECHPIGKTLRIISPFTYCDDGEHVGAFIREVNGRYLVSDRCDALMNMEARGISLTKKRLDEIRQLLLKEGAELNARGEIIAWATEKDVGAITSNIIRAGILASTLSLDWYQPVQAEKFESMVIDYLYHTELRDALSLRENVYGLSGHQITVPVTIKTDIPKYVFTSSVKHGGSWNSAYSLLGKLIDLKASSEEYNNRFVVIDSEAIGDQMQQLSLLFHESSQVLPFSKRETWVKRLAA | not soluble |
| MMEEQLIPIQWKDDALVLLDQTLLPNEIVYESFKTAESVWDAIQVMKVRGAPAIGVSAAYGVYLGIKEFAESTEEGFMDEVRKVCTYLATSRPTAVNLFWALERMESVATDNIHLSISQLKNRLLEEAKEIHREDEEINRQIGEHALTLFHDGMGVLTHCNAGALATTKYGTATAPMYLAKEKGWDLKIYSDETRPRLQGSTLTALELQRAGIDVTVITDNMAAMVMSQGKIDAVIVGCDRVAANGDVANKIGTLGVSILAKYYNIPFYVAAPTPTIDLKTSTGKEIPIEERDASEVINRFGKYSAPKESKVYNPAFDVTPHENVTAIITEKGIVKAPFTENLKKLFQ | not soluble |
